In general, EC50 refers to the concentration needed to bring the measured effect to its halfway point. Low readings indicate a more potent agent, high ones a less potent agent.

The results in this text go back to US20260250338A1.

For this experiment, the target named is CD16aF allelic variant of CD16a expressed on Jurkat cells (human) (UniProt P08637). The experiment can be described thus: flow cytometry on Jurkat cells expressing CD16aF, conditions as in Example 2. (Flow cytometry measures light scatter and fluorescence of single cells or particles in a stream.)
Sequence of CD16aF allelic variant of CD16a expressed on Jurkat cells (human) (P08637 17-254, change not shown): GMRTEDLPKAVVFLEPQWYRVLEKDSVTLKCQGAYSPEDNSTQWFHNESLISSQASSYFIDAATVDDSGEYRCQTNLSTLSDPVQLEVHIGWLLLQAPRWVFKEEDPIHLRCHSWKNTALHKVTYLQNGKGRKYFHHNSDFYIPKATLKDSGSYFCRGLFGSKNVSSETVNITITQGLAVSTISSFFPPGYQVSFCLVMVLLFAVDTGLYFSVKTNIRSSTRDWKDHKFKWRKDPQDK

B1: Construct 25 (SEQ ID NO: 94), CD117 × CD16a, CD117 binder SEQ ID NO: 84 N-terminal of DARPin #7 (designed binder)
chain: MRGSHHHHHHGSDLGQKLLKAAQYGQDDEVRILLAAGADVNAKDWAGKTPLHVAAEAGHLEIVEVLLKAGADVNAKDKAGETPLHLAAEQGHLEIVEVLLKAGADVNAQDEWGQTPADLAAYYGLEDIAEVLQKAAGSPTPTPTTPTPTPTTPTPTPTGSDLGQKLLRAAKKGQDDEVRELLKAGADVNAKDEQGWTPLHNAAWKGHLEIVEVLLKAGADVNAKDVFDWTPLHVAAHFGHLEIVEVLLKAGADVNAQDRAGETPADLAAQAGHEDIAEVLQKAA
Consider B1, for which the EC50 came out at 23.2 nM.
